Kd data for one molecule are collected here from patent US20160237160A1 (Bayer, published 2016).

Assay in all cases: SPR, TWEAKR-Fc immobilized, IgG injected, bivalent analyte model (avidity mode);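 note: kd derived as the ratio of fitted dissociation to association rate constants, with sensorgrams corrected against a reference flow cell and a buffer blank before fitting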
The target in test [1] is T1, TPP-599 (HUMAN-TNFRSF12Aaa28-80-hIgG1-Fc) (human).
T1 construct: dimeric; also called human TWEAKR Fc; TWEAKR-Fc
Experimental: (§1) Sensorgrams were generated after in-line reference cell correction followed by buffer sample subtraction. The dissociation equilibrium constant (KD) was calculated based on the ratio of association (kₒₙ₁) and dissociation rated (koff1) constants, obtained by fitting sensorgrams with a bivalent analyte model using Biavaluation Software (version 4.0).

The target in test [2] is T2, TPP-601 (MURINE-TNFRSF12Aaa28-80-hIgG1-Fc) (murine).
T2 construct: dimeric; also called murine TWEAKR Fc
Experimental: as §1

For test [3], the target named is T3, TPP-1846 (MAC-TNFRSF12Aaa28-80-hIgG1-Fc) (macaca fascicularis).
T3 construct: bivalent antigen; also called mac fasc TWEAKR Fc
Experimental: as §1

For test [4], the target named is T4, TPP-1779 (RAT-TNFRSF12Aaa28-80-hIgG1-Fc) (rat).
T4 construct: bivalent antigen; also called rat TWEAKR Fc
Experimental: as §1

Test [5] deals with T5, TPP-1778 (PIG-TNFRSF12Aaa28-80-hIgG1-Fc) (pig).
T5 construct: bivalent antigen; also called pig TWEAKR Fc
Experimental: as §1

In test [6] the target is T6, TPP-1777 (DOG-TNFRSF12Aaa28-80-hIgG1-Fc) (dog).
T6 construct: bivalent antigen; also called dog TWEAKR Fc
Experimental: as §1

B1: TPP-2090 (antibody, human IgG1, kappa, V domains shown)
VH: EVQLLESGGGLVQPGGSLRLSCAASGFTFSPYPMIWVRQAPGKGLEWVSYISPSGGSTHYADSVKGRFTISRDNSKNTLYLQMNSLRAEDTAVYYCARGGDTYFDYFDYWGQGTLVTVSS
VL: DIQMTQSPSSLSASVGDRVTITCRASQSISGYLNWYQQKPGKAPKLLIYQASSLQSGVPSRFSGSGSGTDFTLTISSLQPEDFATYYCQQSYTSPFITFGQGTKVEIKR
notes: Human IgG1
As for B1, the Kd in test [1] was 15 nM; in test [2], 4.1 nM; in test [3], 21.2 nM; in test [4], 4.3 nM; in test [5] it was 9.9 nM; in test [6], 6 nM.
